# Values of other authors in US20040253224A1, “Mammalian mucinase, its recombinant production, and its use in therapy or prophylaxis against diseases in which mucus is involved or infectious diseases” (priority 2001, published 2004).
# B1: recombinant human DNase I: recombinant human deoxyribonuclease I, an enzyme that selectively cleaves DNA (Pulmozyme, Genentech) (protein, UniProt P24855 23-282, looked up)
# Deoxyribonuclease-1: LKIAAFNIQTFGETKMSNATLVSYIVQILSRYDIALVQEVRDSHLTAVGKLLDNLNQDAPDTYHYVVSEPLGRNSYKERYLFVYRPDQVSAVDSYYYDDGCEPCGNDTFNREPAIVRFFSRFTEVREFAIVPLHAAPGDAVAEIDALYDVYLDVQEKWGLEDVMLMGDFNAGCSYVRPSQWSSIRLWTSPTFQWLIPDSADTTATPTHCAYDRIVVAGMLLRGAVVPDSALPFNFQAAYGLSDQLAQAISDHYPVEVMLK
# What was measured:
# [1] = aerosolized, Phase 3, cystic fibrosis patients
# [2] = in vitro
molecule,measurement,setting,value
B1,improvement in FEV1,[1],5.6-5.8%
same,reduction in respiratory exacerbations,[1],28-37%
same,mucociliary transportability of CF sputum,[2],increased
same,viscosity and adhesiveness of purulent CF sputum,[2],decrease
